How the values were obtained:
[1] = target: T1, Sin Nombre hantavirus nucleocapsid protein (N) (Sin Nombre hantavirus) (UniProt Q89462); assay: filter; conditions: 5' m7G cap
T1 sequence: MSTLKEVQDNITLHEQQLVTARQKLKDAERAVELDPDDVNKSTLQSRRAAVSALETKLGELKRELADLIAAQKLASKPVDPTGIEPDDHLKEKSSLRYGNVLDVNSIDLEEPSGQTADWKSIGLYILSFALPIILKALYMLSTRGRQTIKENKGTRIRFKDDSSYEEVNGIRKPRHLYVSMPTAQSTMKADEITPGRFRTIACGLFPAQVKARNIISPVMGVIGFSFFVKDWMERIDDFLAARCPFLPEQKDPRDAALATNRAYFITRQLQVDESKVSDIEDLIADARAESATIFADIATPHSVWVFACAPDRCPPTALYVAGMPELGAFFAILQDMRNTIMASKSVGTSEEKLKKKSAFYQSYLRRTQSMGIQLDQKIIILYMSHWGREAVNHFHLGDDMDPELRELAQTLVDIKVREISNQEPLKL

[2] = target: T2, Sin Nombre hantavirus nucleocapsid protein (N) (Sin Nombre hantavirus, UniProt Q89462 SEQ:1-428); assay: filter; conditions: tags: C-terminal octahistidine tag, expressed in E. coli; label: 32P-CTP
T2 sequence: T1 sequence

capped TriEx 5'-terminal decamer gave a Kd [1] of 130 nM.

B1: m7… capped decamer (ssRNA)
RNA: GUCUCUCCCA
modifications: 5' m7G cap
Molecule B1 has a Kd [2] of about 130 nM.

B2: m7GUCUCC capped hexamer (ssRNA)
RNA: GUCUCC
modifications: 5' m7G cap
With B2 the Kd [2] was 125 nM.
